Data reported in paper PMC8809517, “Cofactor-independent RNA editing by a synthetic S-type PPR protein”.
Changes are numbered by the printed parent chain.

T1: GFP-9S library array, motif 4 ND N98V;D124L (synthetic construct, N98V;D124L)
T1 chain: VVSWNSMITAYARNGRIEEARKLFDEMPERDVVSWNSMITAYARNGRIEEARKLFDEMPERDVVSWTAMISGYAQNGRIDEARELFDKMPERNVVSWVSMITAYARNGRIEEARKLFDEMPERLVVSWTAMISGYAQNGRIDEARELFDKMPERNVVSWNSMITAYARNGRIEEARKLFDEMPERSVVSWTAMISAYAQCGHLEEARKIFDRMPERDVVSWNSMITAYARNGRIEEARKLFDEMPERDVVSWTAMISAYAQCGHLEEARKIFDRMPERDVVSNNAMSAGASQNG

T2: GFP-9S library array, motif 4 ND N98S;D124E (synthetic construct, N98S;D124E)
T2 chain: T1 chain with V98S, L124E

T3: GFP-9S library array, motif 4 ND N98W;D124V (synthetic construct, N98W;D124V)
T3 chain: T1 chain with V98W, L124V

T4: GFP-9S library array, motif 4 ND N98Q;D124Q (synthetic construct, N98Q;D124Q)
T4 chain: T1 chain with V98Q, L124Q

T5: GFP-9S library array, motif 4 ND N98K;D124P (synthetic construct, N98K;D124P)
T5 chain: T1 chain with V98K, L124P


Legend:
Test in all cases: high-throughput RNA pulldown from lysate on Ni-NTA beads; HRP: 50 mM Tris pH 8, 150 mM NaCl, 1 mM beta-mercaptoethanol, 50 ug/ml BSA, 3 ug/ml yeast RNA, 0.5% heparin; ITC and FP: Tris pH 8, 200 mM KCl, 5% glycerol; MST: 50 mM Tris pH 8, 200 mM NaCl, 1 mM DTT, BSA, heparin, 0.05% Tween 20
Conditions in all cases: tags: N-terminal His-eGFP
[1] = target: T1, GFP-9S library array, motif 4 ND …
[2] = target: T2, GFP-9S library array, motif 4 ND …
[3] = target: T3, GFP-9S library array, motif 4 ND …
[4] = target: T4, GFP-9S library array, motif 4 ND …
[5] = target: T5, GFP-9S library array, motif 4 ND …

| Binder | Kd ([1]; label: 5' IRDye 800CW) | Kd ([2]; label: 5' IRDye 800CW) | Kd ([3]; label: 5' IRDye 800CW) | Kd ([4]; label: 5' IRDye 800CW) | Kd ([5]; label: 5' IRDye 800CW) | Kd ([1]; label: 5' Cy5) | Kd ([2]; label: 5' Cy5) | Kd ([3]; label: 5' Cy5) | Kd ([4]; label: 5' Cy5) | Kd ([5]; label: 5' Cy5) |
| --- | --- | --- | --- | --- | --- | --- | --- | --- | --- | --- |
| AUUAUACGUGA (ssRNA) [IR-rpoA-U] | 126 nM | 201 nM | 100 nM | 123 nM | 76.4 nM | – | – | – | – | – |
| AUUAAACGUGA (ssRNA) [IR-rpoA-A] | 199 nM | 70.5 nM | 95.6 nM | 167 nM | 194 nM | – | – | – | – | – |
| AUUACACGUGA (ssRNA) [Cy5-rpoA] | – | – | – | – | – | 88.5 nM | 276 nM | 41.1 nM | 118 nM | 107 nM |
| AUUAGACGUGA (ssRNA) [Cy5-rpoA-G] | – | – | – | – | – | 112 nM | 122 nM | 50.8 nM | 95.5 nM | 105 nM |
